This note sets out measurements from patent publication US20240226314A1 (Sanofi, published 2024).

Values joined by “and” are separate entries in the source; they are usually repeats but may differ in a detail not shown here. Equal entries are not always repeated. Where two headings read alike, the source gives them in different places.

To fix the notation:
T1: His-tagged cynomolgus monkey TfR ectodomain (cyTFRC_89_760; mature protein) (cynomolgus monkey (Macaca fascicularis), UniProt Q5RDH6 89-760 (Pongo abelii entry))
T1 construct: also called cTfR; cTfR ectodomain
T1 chain: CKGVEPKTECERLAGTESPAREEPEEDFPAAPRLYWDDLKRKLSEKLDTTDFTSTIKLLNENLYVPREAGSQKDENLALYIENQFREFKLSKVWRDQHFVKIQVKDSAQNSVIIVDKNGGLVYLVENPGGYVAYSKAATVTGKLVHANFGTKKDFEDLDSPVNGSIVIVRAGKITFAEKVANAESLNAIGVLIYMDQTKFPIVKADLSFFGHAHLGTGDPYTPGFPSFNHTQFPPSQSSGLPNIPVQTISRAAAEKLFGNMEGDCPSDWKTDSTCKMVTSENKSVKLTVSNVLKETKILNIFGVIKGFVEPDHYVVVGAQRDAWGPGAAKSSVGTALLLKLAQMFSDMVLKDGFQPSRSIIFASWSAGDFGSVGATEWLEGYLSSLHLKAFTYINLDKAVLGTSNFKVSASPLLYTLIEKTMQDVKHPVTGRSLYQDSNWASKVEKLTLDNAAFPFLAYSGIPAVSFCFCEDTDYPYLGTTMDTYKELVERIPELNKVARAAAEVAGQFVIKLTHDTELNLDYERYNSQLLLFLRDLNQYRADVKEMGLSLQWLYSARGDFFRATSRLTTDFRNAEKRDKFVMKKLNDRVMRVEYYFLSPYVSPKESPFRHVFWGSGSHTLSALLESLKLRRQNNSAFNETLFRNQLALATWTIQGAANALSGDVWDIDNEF

B1: 531v25Fab-FcOL (other)
heavy: QVQLVQSGAEVKKPGASVKVSCKASGYTFTRYYLNWVRQAPGQGLEWIGMIDPSVSETHYAQKFQGRATLTVDKSTSTAYMELSSLRSEDTAVYYCSQIRLPYYYAMDSWGQGTTVTVSSASTKGPSVFPLAPSSKSTSGGTAALGCLVKDYFPEPVTVSWNSGALTSGVHTFPAVLQSSGLYSLSSVVTVPSSSLGTQTYICNVNHKPSNTKVDKKVEPKSCDKTHTCPPCPAPELLGGPSVFLFPPKPKDTLMISRTPEVTCVVVDVSHEDPEVKFNWYVDGVEVHNAKTKPREEQYNNASRVVSVLTVLHQDWLNGKEYKCKVSNKALPAPIEKTISKAKGQPREPQVCTLPPSRDELTKNQVSLSCAVKGFYPSDIAVEWESNGQPENNYKTTPPVLDSDGSFFLVSKLTVDKSRWQQGNVFSCSVMHEALHNRFTQKSLSLSPG
light: not shown
chain: DKTHTCPPCPAPELLGGPSVFLFPPKPKDTLMISRTPEVTCVVVDVSHEDPEVKFNWYVDGVEVHNAKTKPREEQYNNASRVVSVLTVLHQDWLNGKEYKCKVSNKALPAPIEKTISKAKGQPREPQVYTLPPCRDELTKNQVSLWCLVKGFYPSDIAVEWESNGQPENNYKTTPPVLDSDGSFFLYSKLTVDKSRWQQGNVFSCSVMHEALHNHYTQKSLSLSPG
notes: Monovalent heterotrimer; It has a full IgG1 heavy chain (NNAS, hole, RF), a kappa light chain and an Fc polypeptide (knob) that dimerizes with the heavy chain
B2: cTfR: AviTag fused in the N-terminus of the ectodomain of cTfR (amino acid residues 90 to 760 of SEQ ID NO: 2) (receptor)
chain: GSHHHHHHHHGGGGSLNDIFEAQKIEWHGSKGVEPKTECERLAGTESPAREEPEEDFPAAPRLYWDDLKRKLSEKLDTTDFTSTIKLLNENLYVPREAGSQKDENLALYIENQFREFKLSKVWRDQHFVKIQVKDSAQNSVIIVDKNGGLVYLVENPGGYVAYSKAATVTGKLVHANFGTKKDFEDLDSPVNGSIVIVRAGKITFAEKVANAESLNAIGVLIYMDQTKFPIVKADLSFFGHAHLGTGDPYTPGFPSFNHTQFPPSQSSGLPNIPVQTISRAAAEKLFGNMEGDCPSDWKTDSTCKMVTSENKSVKLTVSNVLKETKILNIFGVIKGFVEPDHYVVVGAQRDAWGPGAAKSSVGTALLLKLAQMFSDMVLKDGFQPSRSIIFASWSAGDFGSVGATEWLEGYLSSLHLKAFTYINLDKAVLGTSNFKVSASPLLYTLIEKTMQDVKHPVTGRSLYQDSNWASKVEKLTLDNAAFPFLAYSGIPAVSFCFCEDTDYPYLGTTMDTYKELVERIPELNKVARAAAEVAGQFVIKLTHDTELNLDYERYNSQLLLFLRDLNQYRADVKEMGLSLQWLYSARGDFFRATSRLTTDFRNAEKRDKFVMKKLNDRVMRVEYYFLSPYVSPKESPFRHVFWGSGSHTLSALLESLKLRRQNNSAFNETLFRNQLALATWTIQGAANALSGDVWDIDNEF
modifications: site-specific biotinylation on N-terminal Avitag
notes: Immobilised on streptavidin probes for BLI; also called biotinylated cTfR ectodomain

The target of experiment [1] is B2. Nature of the experiment: BLI; KD on cTfR against KD on hTfR. An excerpt:
(§1) A 1:1 binding model with global fitting was applied after double subtraction for buffer and probe analyte interaction with a 0-90 second association and 0-60 dissociation window.

Experiment [2] concerns the target B2. Nature of the experiment: BLI; KD on cTfR against KD on hTfR.
Excerpt: as §1

The target in experiment [3] is T2, hTfR: AviTag fused to the N-terminus of the ectodomain of human TfR (residues 90 to 760 of SEQ ID NO: 1) (human, UniProt P02786 90-760, site-specific biotinylation on N-terminal Avitag).
T2 construct: also called biotinylated hTfR ectodomain
Nature of the experiment: BLI, immobilised AviTag-hTfR ectodomain, no saturation. The source says: (§2) A 1:1 binding model with global fitting was applied after double subtraction for buffer and probe analyte interaction with a 0-90 second association and 0-60 dissociation window. […] A 1:1 binding model with global fitting was applied after double subtraction for buffer and probe analyte interaction.

The target of experiment [4] is T3, His-tagged human TfR ectodomain (hTFRC_89-760_G142S; mature protein) (human, UniProt P02786 89-760).
T3 construct: It carries the G142S haplotype; also called hTfR ectodomain
The experiment is described as follows: SPR, His-tagged TfR ectodomain captured on anti-His, 1:1 fit. As to the method:
(§3) Binding of the humanized Fab variants to human, cynomolgus and mouse TfR was assessed using SPR at pH 7.4. Experiments were run on a Bruker MASS-2 instrument with HBS-EP+ as running buffer and sample diluent (Cytiva Life Sciences, #BR100826). HCA sensor chips (Bruker, #1862614) were immobilized with anti-His antibody (His capture kit, Cytiva Life Sciences, #28995056) following manufacturer's instructions. About 10,000 RU of anti-His was obtained. His-tagged hTfR ectodomain (SEQ ID NO: 39), cTfR ectodomain (SEQ ID NO: 40) or mouse TfR ectodomain (SEQ ID NO: 41) (5 μg/ml) was captured for 1 min at 10 μL/min. Concentration series of the humanized Fab variants were then injected for 4 min at 30 μL/min over hTfR surfaces and dissociation was monitored for 5 min. Surface was regenerated with one 1 min pulse of 10 mM glycine-HCl at pH 1.5.

Experiment [5] concerns the target T1, His-tagged cynomolgus monkey TfR …. The experiment is described as above. As to the method: as §3
For experiment [6], the target named is T2, hTfR: AviTag fused to the N-terminus of …. Nature of the experiment: BLI, immobilised hTfR pre-saturated with 500 nM human holo-transferrin (competitor).
Excerpt: as §2
In general terms: BLI is a label-free optical method that tracks binding on a fibre tip over time.

Experiment [7] has the same target. Nature of the experiment: BLI (Octet), biotinylated AviTag-TfR ectodomain on streptavidin probes, 1:1 global fit.
Excerpt: as §1

For experiment [8], the target named is B2. The description is as above.
Excerpt: as §1

The target in experiment [9] is T2, hTfR: AviTag fused to the N-terminus of …. Described as above.
Excerpt: as §1
This is another data set of the same source.

Experiment [10] concerns the target B2. The description is as above.
Excerpt: as §1

The target of experiment [11] is T4, anti-TfR 531v25-Fab-FcOL-GAA.
T4 construct: Monovalent Fab-FcOL with GAA fused to the C-terminus of the Fc polypeptide
The description is as above.
Excerpt: as §1

As to B1, the “Cynomolgus/human KD ratio” value in experiment [1] and in experiment [2] was 4.7 each time. For the same molecule, the Kd (commonly the equilibrium constant for the complex coming apart) is 22.1 nM in experiment [3]; 11.8 nM and 15 nM and 8.5 nM in [4]; 124 nM and 140 nM and 109 nM in [5]; 44 nM in experiment [6]; 22.1 nM in experiment [7]; 103 nM in experiment [8]. Also, the Kd in experiment [9] worked out at 22.1 nM; in [10], 103 nM.

In turn, B2 returned a Kd in experiment [11] of 69.9 nM.
